# Test results published in article PMC3696110, “Hsp70 Oligomerization Is Mediated by an Interaction between the Interdomain Linker and the Substrate-Binding Domain” (PLoS ONE, 2013).
# B1: NR peptide (NRLLLTG), non-dansylated (peptide)
# peptide: NRLLLTG
# notes: model Hsp70 substrate peptide; the peptide of that experiment may have carried the dansyl group (surmise); also called ND-NR; source: synthetic peptide (Genemed Synthesis Inc.)
# Biological target: T1, SBD641 (human Hsp70 residues 384-641) (human, UniProt P0DMV8 384-641)
# T1 construct: Thrombin cleavage of the His tag is stated as >99% for all variants; also called full-length SBD; not shown: His6, N-terminal, cleaved
# T1 sequence (P0DMV8 384-641): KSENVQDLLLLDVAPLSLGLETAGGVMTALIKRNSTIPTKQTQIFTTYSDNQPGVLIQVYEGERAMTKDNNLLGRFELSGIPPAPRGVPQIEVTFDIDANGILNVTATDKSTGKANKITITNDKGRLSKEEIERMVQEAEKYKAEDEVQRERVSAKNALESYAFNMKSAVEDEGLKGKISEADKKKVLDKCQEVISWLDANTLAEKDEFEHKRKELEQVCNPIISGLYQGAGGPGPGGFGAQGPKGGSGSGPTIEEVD
# Test: native MS; nESI-MS of SBD641 in the presence of NR peptide at a 1:1 molar ratio; 150 mM ammonium acetate, pH 7.4
# Settings: both partners purified
binder,measurement,value
B1,binding result,binds
